Data taken from patent US20250066476A1 (TENEOONE, published 2025).

Target: T1, human PSMA (Prostate Specific Membrane Antigen, Glutamate Carboxypeptidase II) (human, UniProt Q04609 1-750)
T1 construct: whole, on cells; the cell line is named under assay; also called FOLH1
Experiment: flow cytometry on LNCaP cells
Protocol: Briefly, 50,000 target cells were stained with a dilution series of purified UniAbs™ for 30 minutes at 4° C. Following incubation, the cells were washed twice with flow cytometry buffer (1×PBS, 1% BSA, 0.1% NaN₃) and stained with goat F(ab′)₂ anti-human IgG conjugated to R-phycoerythrin (PE) (Southern Biotech, cat. #2042-09) to detect cell-bound antibodies. After a 20-minute incubation at 4° C., the cells were washed twice with flow cytometry buffer and the mean fluorescence intensity (MFI) was measured by flow cytometry. The MFI of cells stained with secondary antibody alone were used for determination of background signal and binding of each antibody was converted to fold over background. Binding to cynomolgus PSMA positive cells was determined using the same protocol with the following modifications: the target cells were from Freestyle 293-F cells (ThermoFisher R79007) transiently transfected to express the extracellular domain of cynomolgus PSMA. In some experiments EC50 values were calculated using GraphPad Prism 7.
Column 1 indicates the clone ID of the HCAb. Column 2 indicates binding to LNCaP cells measured as fold over the background MFI signal.

T1 sequence (Q04609 whole entry): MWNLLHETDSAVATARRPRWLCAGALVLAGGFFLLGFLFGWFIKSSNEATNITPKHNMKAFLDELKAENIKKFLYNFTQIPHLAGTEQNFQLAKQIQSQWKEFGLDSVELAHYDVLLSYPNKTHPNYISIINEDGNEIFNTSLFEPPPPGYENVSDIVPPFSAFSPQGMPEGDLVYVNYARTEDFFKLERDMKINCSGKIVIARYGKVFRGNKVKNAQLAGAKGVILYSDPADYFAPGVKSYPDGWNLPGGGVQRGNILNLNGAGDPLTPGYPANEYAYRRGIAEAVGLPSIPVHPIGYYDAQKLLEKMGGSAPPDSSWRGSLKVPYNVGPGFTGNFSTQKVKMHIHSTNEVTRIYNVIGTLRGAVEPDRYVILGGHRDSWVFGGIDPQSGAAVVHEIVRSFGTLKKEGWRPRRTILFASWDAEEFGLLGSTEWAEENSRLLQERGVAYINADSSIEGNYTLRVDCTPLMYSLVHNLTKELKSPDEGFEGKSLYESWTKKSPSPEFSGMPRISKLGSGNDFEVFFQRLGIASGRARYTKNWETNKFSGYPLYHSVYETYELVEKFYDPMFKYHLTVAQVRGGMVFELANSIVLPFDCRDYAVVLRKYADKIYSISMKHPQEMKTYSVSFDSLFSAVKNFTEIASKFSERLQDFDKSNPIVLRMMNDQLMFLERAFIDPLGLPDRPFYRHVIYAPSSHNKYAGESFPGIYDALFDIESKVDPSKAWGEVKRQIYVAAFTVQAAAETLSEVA

| fold over the background MFI signal [fold over background MFI] | Binder |
| --- | --- |
| 102 | anti-PSMA heavy-chain antibody clone ID 345461 (antibody, V domains shown, heavy chain-only antibody (UniAb/HCAb)) VH: QVQLVESGGGVVQPGRSLRLSCAASGFSFTSYGMHWVRQAPGKGLEGVAVIWYDGSNRYYADSVKGRFTISRDNSKNTLYLQMNSLRAEDTAVYYCAREPRIGYYYESSGYYSLDYRGQGTLVTVSS |
| 112 | anti-PSMA heavy-chain antibody clone ID 345497 (antibody, V domains shown, heavy chain-only antibody (UniAb/HCAb); also called HCAb 345497) VH: QVQLVESGGGVVQPGRSLRLSCAASGFSFSRYGMHWVRQAPGKGLEGVAVIWYDGSNRYYADSVKGRFTISRDNSKNTLYLQMNSLRAEDTAVYYCAREPRIGYYYESSGYYSLDYRGQGTLVTVSS |
| 23 | anti-PSMA heavy-chain antibody clone ID 345444 (antibody, V domains shown, heavy chain-only antibody (UniAb/HCAb)) VH: QVQLVESGGGVVQPGRSLRLSCAASGFTFSSYGMHWVRQAPGKGLEGVAVIWYDGSNRYYADSVKGRFTISRDNSKNTLYLQMNSLRAEDTAVYYCAREPRIGYYYESSGYYSLDYRGQGTLVTVSS |
| 14 | anti-PSMA heavy-chain antibody clone ID 345447 (antibody, V domains shown, heavy chain-only antibody (UniAb/HCAb)) VH: QVQLVESGGGVVQPGRSLRLSCAASGFSFSSYGMHWVRQAPGKGLEGVAVISYDGSNRYYADSVKGRFTISRDNSKNTLYLQMNSLRAEDTAVYYCAREPRIGYYYESSGYYSLDYRGQGTLVTVSS |
| 22 | anti-PSMA heavy-chain antibody clone ID 345421 (antibody, V domains shown, heavy chain-only antibody (UniAb/HCAb)) VH: QVQLVESVGGVVQPGRSLRLSCAASGFSFSSYGMHWVRQAPGKGLEGVAVIWYDGSNRYYADSVKGRFTISRDNSKNTLYLQMNSLRAEDTAVYYCAREPRIGYYYESSGYYSLDYRGQGTLVTVSS |
| 80 | anti-PSMA heavy-chain antibody clone ID 345482 (antibody, V domains shown, heavy chain-only antibody (UniAb/HCAb)) VH: QVQLVESGGGVVQPGRSLRLSCAASGFSFSSYGMHWVRQAPGKGLEGVAVIWYDGSNRYYADSVKGRFTISRDSSKNTLYLQMNSLRAEDTAVYYCAREPRIGYYYESSGYYSLDYRGQGTLVTVSS |
| 109 | anti-PSMA heavy-chain antibody clone ID 326029 (antibody, V domains shown, heavy chain-only antibody (UniAb/HCAb)) VH: QVQLVESGGGVVQPGRSLRLSCAASGFSFSRYGMHWVRQAPGKGLEWVAVISYDGSNKYYADSVKGRFTISRDNSKNTLYLQMNSLRAEDTAVYYCAREPRVGYYYETSGYYSLDYRGQGTLVTVSS |
| 101 | anti-PSMA heavy-chain antibody clone ID 345493 (antibody, V domains shown, heavy chain-only antibody (UniAb/HCAb)) VH: QVQLVESGGGVVQPGRSLRLSCAASGFSFSRYGMHWVRQAPGKGLEWVAVIWYDGSNRYYADSVKGRFTISRDNSKNTLYLQMNSLRAEDTAVYYCAREPRIGYYYESSGYYSLDYRGQGTLVTVSS |
| 200 | anti-PSMA heavy-chain antibody clone ID 325742 (antibody, V domains shown, heavy chain-only antibody (UniAb/HCAb)) VH: QVQLVESGGGVVQPGRSLRLSCAASGFSFSSYGMHWVRQAPGKGLEWVAVIWYDGSNKYYADSVKGRFTISRDYSKNTLYLQMNSLRAEDTAVYYCAREPRIGYYYESSGYDSLDYRGQGTLVTVSS |
| 117 | anti-PSMA heavy-chain antibody clone ID 326028 (antibody, V domains shown, heavy chain-only antibody (UniAb/HCAb)) VH: QVQLVESGGGVVQPGRSLRLSCAASGFSFRSYGMHWVRQAPGKGLEWVAVISYDGSNKYYADSVKGRFTISRDYSKNTLYLQMNSLRAEDTAVYYCAREPRIGYYYDSSGYDSLDYRGQGTLVTVSS |
| 13 | anti-PSMA heavy-chain antibody clone ID 345438 (antibody, V domains shown, heavy chain-only antibody (UniAb/HCAb)) VH: QVQLVESGGGVVQPGRSLRLSCAASGFSFSSYGMHWVRQAPGKGPEWVAVIWYDGSNKYYADSVKGRFTISRDNSKNTLYLQMNSLRAEDTAVYYCAREPRIGYYYESSGYYSLDYRGQGTLVTVSS |
| 138 | anti-PSMA heavy-chain antibody clone ID 326027 (antibody, V domains shown, heavy chain-only antibody (UniAb/HCAb)) VH: QVQLVESGGGVVQPGRSLRLSCAASGFSFRSYGMHWVRQAPGKGLEWVAVIWYDGSNKYYADSVKGRFTISRDNSKNTLYLQMNSLRAEDTAVYYCAREPRIGYYYDSSGYDSLDYRGQGTLVTVSS |
| 38 | anti-PSMA heavy-chain antibody clone ID 326116 (antibody, V domains shown, heavy chain-only antibody (UniAb/HCAb)) VH: QVQLVESGGGVVQPGRSLRLSCAASGFSFSRYGMHWVRQAPGKGLEGVAVISYDGSNKYYADSVKGRFTISRDYSKNTLYLQMNSLRAEDTAVYYCAREPRIGYYYDSSGYDSLDYRGQGTLVTVSS |
| 264 | anti-PSMA heavy-chain antibody clone ID 346181 (antibody, V domains shown, heavy chain-only antibody (UniAb/HCAb)) VH: QLQLQESGPGLVKPSETLSLTCTVSGGSISSSNYFWGWIRQSPGKGLEWIGSIDYSGYTYYNPSLKSRVTISVDTSKNQFSLKLSSVTAADTAVYNCARHKAATADFDYRGQGTLVTVSS |
| 25 | anti-PSMA heavy-chain antibody clone ID 326109 (antibody, V domains shown, heavy chain-only antibody (UniAb/HCAb)) VH: QLQLQESGPGLVKPSETLSLTCTVSGGSISSNSYYWGWIRQSPGKGLEWLGSIYDSGSTHYNPSLKSRVIISGDTSKNQFSLKLSSVTAADTAVYYCARHKAATADFDYRGQGTLVTVSS |
| 282 | anti-PSMA heavy-chain antibody clone ID 325920 (antibody, V domains shown, heavy chain-only antibody (UniAb/HCAb)) VH: QLQLQESGPGLVKPSETLSLTCTVSGGSISSSSYYWGWIRQPPGKGLEWIGSIDYSGYTYYNPSLQSRVTISVDTSKNQFSLKLSSVTAADTAVYNCARHKAATADFDYRGQGTLVTVSS |
| 243 | anti-PSMA heavy-chain antibody clone ID 346165 (antibody, V domains shown, heavy chain-only antibody (UniAb/HCAb)) VH: QLQLQESGPGLVKPSETLSLTCTVSGGSISSSSYYWGWIRQPPGKGLEWIGSVDYSGYTYYNPSLQSRVTISVDTSKNQFSLKLSSVTAADTAVYNCARHKAATADFDYRGQGTLVTVSS |

Further lines, the binder ahead of its results:

| Binder | fold over the background MFI signal [fold over background MFI] |
| --- | --- |
| anti-PSMA heavy-chain antibody clone ID 325748 (antibody, V domains shown, heavy chain-only antibody (UniAb/HCAb)) VH: QVQLVESGGGVVQPGRSLRLSCAASGFSFSSYGMHWVRQAPGKGLEGVAVIWYDGSNRYYADSVKGRFTISRDNSKNTLYLQMNSLRAEDTAVYYCAREPRIGYYYESSGYYSLDYRGQGTLVTVSS | 193 |
| anti-PSMA heavy-chain antibody clone ID 325940 (antibody, V domains shown, heavy chain-only antibody (UniAb/HCAb)) VH: QVQLVESGGGVVQPGRSLRLSCAASGFIFRSYGMHWVRQAPGKGPEWVAVIWYDGSNKYYADSVKGRFTISRDNSKNTLYLQMNSLRAEDTAVYYCAREPRIGYYYESSGYYSLDYRGQGTLVTVSS | 169 |
| anti-PSMA heavy-chain antibody clone ID 345485 (antibody, V domains shown, heavy chain-only antibody (UniAb/HCAb)) VH: QVQLVESGGGVVQPGRSLRLSCAASGFSFRSYGMHWVRQAPGKGLEWVAVIWYDGSNKYYADSVKGRFTISRDNSKNTMYLQMNSLRAEDTAVYYCAREPRIGYYYESSGYYSLDYRGQGTLVTVSS | 71 |
| anti-PSMA heavy-chain antibody clone ID 345436 (antibody, V domains shown, heavy chain-only antibody (UniAb/HCAb)) VH: QVQLVESGGGVVQPGRSLRLSCAASGFSFSRYGMHWVRQAPGKGLEGVAVIWYDGSNKYYADSVKGRFTISRDNSKNTLYLQMNSLRAEDTAVYYCAREPRIGYYYESSGYYSLDYRGQGTLVTVSS | 87 |
| anti-PSMA heavy-chain antibody clone ID 325836 (antibody, V domains shown, heavy chain-only antibody (UniAb/HCAb)) VH: QVQLVESGGGVVQPGRSLRLSCAASGFSFRSYGMHWVRQAPGKGLEWVAVIWYDGSNKYYADSVKGRFTISRDYSKNTLYLQMNSLRAEDTAVYYCAREPRIGYYYDSSGYDSLDYRGQGTLVTVSS | 163 |
| anti-PSMA heavy-chain antibody clone ID 326087 (antibody, V domains shown, heavy chain-only antibody (UniAb/HCAb)) VH: QVQLVESGGGVVQPGRSLRLSCAASGFIFRSYGMHWVRQAPGKGPEWVAVIWYDGSNKYYADSVKGRFTISRDNSKNTLYLQMNSLRAEDTAVYYCAREPRIGYYYDSSGYDSLDYRGQGTLVTVSS | 129 |
| anti-PSMA heavy-chain antibody clone ID 325867 (antibody, V domains shown, heavy chain-only antibody (UniAb/HCAb)) VH: QVQLVESGGGVVQPGRSLRLSCAASGFSFRSYGMHWVRQAPGKGLEWVAVIWYDGSNKYYADSVKGRFTISRDYSKNTLYLQMNSLRAEDTAVYYCAREPRIGYYYESSGYDSLDYRGQGTLVTVSS | 210 |
| anti-PSMA heavy-chain antibody clone ID 326084 (antibody, V domains shown, heavy chain-only antibody (UniAb/HCAb)) VH: QVQLVESGGGVVQPGRSLRLSCAASGFSFSSYGMHWVRQAPGKGLEGVAVIWYDGSNRYYADSVKGRFTISRDNSKNTLYLQMNSLRAEDTAVYYCAREPRIGYYYDSSGYYSLDYRGQGTLVTVSS | 125 |
| anti-PSMA heavy-chain antibody clone ID 345490 (antibody, V domains shown, heavy chain-only antibody (UniAb/HCAb)) VH: QVQLVESGGGLVKPGGSLRLSCAASGFSFSSYGMHWVRQAPGKGLEGVAVIWYDGSNRYYADSVKGRFTISRDNSKNTLYLQMNSLRAEDTAVYYCAREPRIGYYYESSGYYSLDYRGQGTLVTVSS | 80 |
| anti-PSMA heavy-chain antibody clone ID 345463 (antibody, V domains shown, heavy chain-only antibody (UniAb/HCAb)) VH: QVQLVESGGGVVQPGRSLRLSCAASGFIFRSYGMHWVRQAPGKGPEWVAVIWYDGSNKYYADSVKGRFTISRDNSKNTLYLQMNSLRAEDTAVYYCAREPRIGYYYESSGYYSLDYRGQGTLVTVSS | 68 |
| anti-PSMA heavy-chain antibody clone ID 345480 (antibody, V domains shown, heavy chain-only antibody (UniAb/HCAb)) VH: QVQLVESGGGVVQPGRSLRLSCAASGFSFSSYGMHWVRQAPGKGLEWVAVIWYDGSNRYYADSVKGRFTISRDNSKNTLYLQMNSLRAEDTAVYYCAREPRIGYYYESSGYYSLDYRGQGTLVTVSS | 47 |
| anti-PSMA heavy-chain antibody clone ID 345443 (antibody, V domains shown, heavy chain-only antibody (UniAb/HCAb)) VH: QVQLVESGGGVVQPGRSLRLSCAASGFSFSSYGMHWVRQAPGKGLEGVAVIWYDGSNRYYADSVKGRFTISRDNSKNTLFLQMNSLRAEDTAVYYCAREPRIGYYYESSGYYSLDYRGQGTLVTVSS | 84 |
| anti-PSMA heavy-chain antibody clone ID 346172 (antibody, V domains shown, heavy chain-only antibody (UniAb/HCAb)) VH: QLQLQESGPGLVKPSETLSLTCTVSGGSISSSSYYWGWIRQPPGKGLEWIGSIDYSGYTYYNPSLKSRVTISVDTSKNQFSLKLSSVTAADTAVYNCARHKAATADFDYRGQGTLVTVSS | 216 |
